This note sets out measurements from patent US6294341, “Method for detecting a substance having an activity to inhibit HIV infection using immunoassay and variant protein used for said method” (Korea Institute of Science and Technology, dated 2001).

This test has as its target Trx-N variant protein (homo sapiens and HIV hybrid). In words: immunoassay on plate-adsorbed Trx-N, detection with anti-GST antibody.

B1: glutathione S-transferase (GST), unmodified (other)
chain: MACGHVKLIYFNGRGRAEPIRMILVAAGVEFEDERIEFQDWPKIKPTIPGGRLPIVKITDKRGDVKTMSESLAIARFIARKHNMMGDTDDEYYIIEKMIGQVEDVESEYHKTLMKPPEEKEKISKEILNGKVPILLQAICETLKESTGNLTVGDKVTLADVVLIASIDHITDLDKEFLTGKYPEIHKHRKHLLATSPKLAKYLSERHATAFLVPRGSPGIHRD
As for B1, the binding result is given as “no binding”.
